Results reported in patent publication US20240391954A1, “MC4R AGONIST PEPTIDES” (The Regents of the University of Michigan, priority 2021, published 2024).
Starred links: 1 amine or outer side, 2 acyl side, 3 side chain; linkers in the order of their positions; H or OH if unused. Positions of bridges follow the written chain, without caps; N, C: chain ends. Non-standard residues stand in square brackets, D forms with d. dTyr(4-OMe) = O-methyl-D-tyrosine (4-OMe), COc1ccc(C[C@@H](N[*:1])C(=O)[*:2])cc1; dPhe(4-Br) = N[C@H](Cc1ccc(Br)cc1)C(=O)O; 1Nal = N[C@@H](Cc1cccc2ccccc12)C(=O)O; d1Nal = N[C@H](Cc1cccc2ccccc12)C(=O)O; 2Pal = N[C@@H](Cc1ccccn1)C(=O)O; 3Pal = N[C@@H](Cc1cccnc1)C(=O)O; 4Pal = N[C@@H](Cc1ccncc1)C(=O)O; Cit = NC(=O)NCCC[C@H](N)C(=O)O; Nle = CCCC[C@H](N)C(=O)O; Orn = NCCC[C@H](N)C(=O)O; Aib = CC(C)(N)C(=O)O

B1: CTX-1627 (peptide)
peptide: Ac-C[dA]R[dF]RWC-NH2
modifications: disulfide 1-7
SMILES: CC(=O)N[C@H]1CSSC[C@@H](C(N)=O)NC(=O)[C@H](Cc2c[nH]c3ccccc23)NC(=O)[C@H](CCCNC(=N)N)NC(=O)[C@@H](Cc2ccccc2)NC(=O)[C@H](CCCNC(=N)N)NC(=O)[C@@H](C)NC1=O
B2: CTX-1617 (peptide)
peptide: Ac-R[Nle]C[Orn][dF]RWC-NH2
modifications: disulfide 3-8
SMILES: CCCC[C@H](NC(=O)[C@H](CCCNC(=N)N)NC(C)=O)C(=O)N[C@H]1CSSC[C@@H](C(N)=O)NC(=O)[C@H](Cc2c[nH]c3ccccc23)NC(=O)[C@H](CCCNC(=N)N)NC(=O)[C@@H](Cc2ccccc2)NC(=O)[C@H](CCCN)NC1=O
B3: CTX-1619 (peptide)
peptide: Ac-R[Nle]C[2Pal][dF]RWC-NH2
modifications: disulfide 3-8
SMILES: CCCC[C@H](NC(=O)[C@H](CCCNC(=N)N)NC(C)=O)C(=O)N[C@H]1CSSC[C@@H](C(N)=O)NC(=O)[C@H](Cc2c[nH]c3ccccc23)NC(=O)[C@H](CCCNC(=N)N)NC(=O)[C@@H](Cc2ccccc2)NC(=O)[C@H](Cc2ccccn2)NC1=O
B4: CTX-1620 (peptide)
peptide: Ac-R[Nle]C[3Pal][dF]RWC-NH2
modifications: disulfide 3-8
SMILES: CCCC[C@H](NC(=O)[C@H](CCCNC(=N)N)NC(C)=O)C(=O)N[C@H]1CSSC[C@@H](C(N)=O)NC(=O)[C@H](Cc2c[nH]c3ccccc23)NC(=O)[C@H](CCCNC(=N)N)NC(=O)[C@@H](Cc2ccccc2)NC(=O)[C@H](Cc2cccnc2)NC1=O
B5: CTX-1611 (peptide)
peptide: Ac-R[Nle]CR[d1Nal]RWC-NH2
modifications: disulfide 3-8
SMILES: CCCC[C@H](NC(=O)[C@H](CCCNC(=N)N)NC(C)=O)C(=O)N[C@H]1CSSC[C@@H](C(N)=O)NC(=O)[C@H](Cc2c[nH]c3ccccc23)NC(=O)[C@H](CCCNC(=N)N)NC(=O)[C@@H](Cc2cccc3ccccc23)NC(=O)[C@H](CCCNC(=N)N)NC1=O
B6: CTX-1632 (peptide)
peptide: Ac-C[Aib]R[dF]RWC-NH2
modifications: disulfide 1-7
SMILES: CC(=O)N[C@H]1CSSC[C@@H](C(N)=O)NC(=O)[C@H](Cc2c[nH]c3ccccc23)NC(=O)[C@H](CCCNC(=N)N)NC(=O)[C@@H](Cc2ccccc2)NC(=O)[C@H](CCCNC(=N)N)NC(=O)C(C)(C)NC1=O
B7: CTX-1628 (peptide)
peptide: Ac-C[dA][Cit][dF]RWC-NH2
modifications: disulfide 1-7
SMILES: CC(=O)N[C@H]1CSSC[C@@H](C(N)=O)NC(=O)[C@H](Cc2c[nH]c3ccccc23)NC(=O)[C@H](CCCNC(=N)N)NC(=O)[C@@H](Cc2ccccc2)NC(=O)[C@H](CCCNC(N)=O)NC(=O)[C@@H](C)NC1=O
B8: CTX-1609 (peptide)
peptide: Ac-R[Nle]C[Cit]FRWC-NH2
modifications: disulfide 3-8
SMILES: CCCC[C@H](NC(=O)[C@H](CCCNC(=N)N)NC(C)=O)C(=O)N[C@H]1CSSC[C@@H](C(N)=O)NC(=O)[C@H](Cc2c[nH]c3ccccc23)NC(=O)[C@H](CCCNC(=N)N)NC(=O)[C@H](Cc2ccccc2)NC(=O)[C@H](CCCNC(N)=O)NC1=O
B9: CTX-1626 (peptide)
peptide: Ac-R[Nle]C[Cit][dF]RFC-NH2
modifications: disulfide 3-8
SMILES: CCCC[C@H](NC(=O)[C@H](CCCNC(=N)N)NC(C)=O)C(=O)N[C@H]1CSSC[C@@H](C(N)=O)NC(=O)[C@H](Cc2ccccc2)NC(=O)[C@H](CCCNC(=N)N)NC(=O)[C@@H](Cc2ccccc2)NC(=O)[C@H](CCCNC(N)=O)NC1=O
B10: CTX-1622 (peptide)
peptide: Ac-R[Nle]CR[dF]RFC-NH2
modifications: disulfide 3-8
SMILES: CCCC[C@H](NC(=O)[C@H](CCCNC(=N)N)NC(C)=O)C(=O)N[C@H]1CSSC[C@@H](C(N)=O)NC(=O)[C@H](Cc2ccccc2)NC(=O)[C@H](CCCNC(=N)N)NC(=O)[C@@H](Cc2ccccc2)NC(=O)[C@H](CCCNC(=N)N)NC1=O
B11: CTX-1629 (peptide)
peptide: Ac-CGR[dF]RWC-NH2
modifications: disulfide 1-7
SMILES: CC(=O)N[C@H]1CSSC[C@@H](C(N)=O)NC(=O)[C@H](Cc2c[nH]c3ccccc23)NC(=O)[C@H](CCCNC(=N)N)NC(=O)[C@@H](Cc2ccccc2)NC(=O)[C@H](CCCNC(=N)N)NC(=O)CNC1=O
B12: CTX-1630 (peptide)
peptide: Ac-CG[Cit][dF]RWC-NH2
modifications: disulfide 1-7
SMILES: CC(=O)N[C@H]1CSSC[C@@H](C(N)=O)NC(=O)[C@H](Cc2c[nH]c3ccccc23)NC(=O)[C@H](CCCNC(=N)N)NC(=O)[C@@H](Cc2ccccc2)NC(=O)[C@H](CCCNC(N)=O)NC(=O)CNC1=O
B13: CTX-1621 (peptide)
peptide: Ac-R[Nle]C[4Pal][dF]RWC-NH2
modifications: disulfide 3-8
SMILES: CCCC[C@H](NC(=O)[C@H](CCCNC(=N)N)NC(C)=O)C(=O)N[C@H]1CSSC[C@@H](C(N)=O)NC(=O)[C@H](Cc2c[nH]c3ccccc23)NC(=O)[C@H](CCCNC(=N)N)NC(=O)[C@@H](Cc2ccccc2)NC(=O)[C@H](Cc2ccncc2)NC1=O
B14: CTX-1624 (peptide)
peptide: Ac-R[Nle]CR[dTyr(4-OMe)]RFC-NH2
modifications: disulfide 3-8
SMILES: CCCC[C@H](NC(=O)[C@H](CCCNC(=N)N)NC(C)=O)C(=O)N[C@H]1CSSC[C@@H](C(N)=O)NC(=O)[C@H](Cc2ccccc2)NC(=O)[C@H](CCCNC(=N)N)NC(=O)[C@@H](Cc2ccc(OC)cc2)NC(=O)[C@H](CCCNC(=N)N)NC1=O
B15: CTX-1623 (peptide)
peptide: Ac-R[Nle]CR[dPhe(4-Br)]RFC-NH2
modifications: disulfide 3-8
SMILES: CCCC[C@H](NC(=O)[C@H](CCCNC(=N)N)NC(C)=O)C(=O)N[C@H]1CSSC[C@@H](C(N)=O)NC(=O)[C@H](Cc2ccccc2)NC(=O)[C@H](CCCNC(=N)N)NC(=O)[C@@H](Cc2ccc(Br)cc2)NC(=O)[C@H](CCCNC(=N)N)NC1=O
B16: CTX-1610 (peptide)
peptide: Ac-R[Nle]CH[1Nal]RWC-NH2
modifications: disulfide 3-8
SMILES: CCCC[C@H](NC(=O)[C@H](CCCNC(=N)N)NC(C)=O)C(=O)N[C@H]1CSSC[C@@H](C(N)=O)NC(=O)[C@H](Cc2c[nH]c3ccccc23)NC(=O)[C@H](CCCNC(=N)N)NC(=O)[C@H](Cc2cccc3ccccc23)NC(=O)[C@H](Cc2c[nH]cn2)NC1=O

molecular target: T1, human MC4R receptor (human, UniProt P32245 1-332); assay: cell-based or functional assay
T1 sequence (P32245 whole entry): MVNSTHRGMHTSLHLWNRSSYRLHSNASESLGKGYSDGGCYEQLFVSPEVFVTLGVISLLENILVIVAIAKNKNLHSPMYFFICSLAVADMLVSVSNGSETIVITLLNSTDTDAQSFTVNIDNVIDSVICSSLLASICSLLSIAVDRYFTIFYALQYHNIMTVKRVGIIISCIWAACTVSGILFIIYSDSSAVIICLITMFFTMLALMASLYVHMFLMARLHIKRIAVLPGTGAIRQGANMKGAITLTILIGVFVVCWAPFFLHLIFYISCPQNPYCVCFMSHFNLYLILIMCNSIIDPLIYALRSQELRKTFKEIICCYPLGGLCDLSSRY

MC4R selectivity vs MC1R | MC4R selectivity vs MC3R | Binder
1.51 | 3.78 | Ac-R[Nle]CR[dF]R[dW]C-NH2 (disulfide 3-8) [CTX-1616]
9.33 | 2.47 | B1
1.75 | 11 | B2
86 | 13 | B3
47 | 12 | B4
0.25 | 6.61 | B5
3.18 | 36 | B6
191 | 6.37 | B7
4.15 | 4.72 | B8
3.05 | 1.6 | B9
0.39 | 0.32 | B10
15 | 19 | B11
1820 | 28 | B12
82 | 13 | B13
0.15 | 0.47 | B14
1.08 | 2.29 | B15
0.03 | 0.66 | B16

molecular target: T1, human MC4R receptor; assay: cell-based or functional assay; remark: another data set of the same source

% max activation [%] | cAMP EC50 [nM] | Binder
93 | 16 | Ac-R[Nle]CR[dF]R[dW]C-NH2 (disulfide 3-8) [CTX-1616]
104 | 1.4 | B1
102 | 0.21 | B2
99 | 2.6 | B3
91 | 4.7 | B4
67 | 1.6 | B5
105 | 0.51 | B6
99 | 14 | B7
96 | 86 | B8
83 | 425 | B9
101 | 41 | B10
102 | 0.67 | B11
102 | 22 | B12
92 | 2.9 | B13
83 | 12 | B14
73 | 1.7 | B15
90 | 247 | B16

molecular target: human MC3R (human, UniProt P41968 1-323); assay: cell-based or functional assay
Sequence (P41968 whole entry): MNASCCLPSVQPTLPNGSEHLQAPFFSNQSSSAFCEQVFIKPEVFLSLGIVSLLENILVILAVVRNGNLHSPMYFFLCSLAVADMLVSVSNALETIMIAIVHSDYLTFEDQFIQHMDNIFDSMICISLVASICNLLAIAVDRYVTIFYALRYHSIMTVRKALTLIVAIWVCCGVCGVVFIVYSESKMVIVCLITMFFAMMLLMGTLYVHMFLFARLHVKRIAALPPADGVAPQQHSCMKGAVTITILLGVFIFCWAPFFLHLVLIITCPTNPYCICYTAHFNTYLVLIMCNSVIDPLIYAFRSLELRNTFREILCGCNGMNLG

% max activation [%] | cAMP EC50 [nM] | Binder
78 | 61 | Ac-R[Nle]CR[dF]R[dW]C-NH2 (disulfide 3-8) [CTX-1616]
98 | 3.7 | B1
102 | 2.3 | B2
84 | 33 | B3
39 | 58 | B4
58 | 11 | B5
77 | 19 | B6
45 | 92 | B7
65 | 407 | B8
51 | 678 | B9
100 | 13 | B10
83 | 13 | B11
35 | 614 | B12
15 | 36 | B13
66 | 5.6 | B14
62 | 3.9 | B15
67 | 163 | B16
